Test results from paper PMC9848473 (2023).

B1: Bacillus subtilis Rel N-terminal domain region (RelBs^NTD; residues 1 to 373) (domain or fragment)
chain: not shown
B2: Bacillus subtilis DarB (natural protein)
chain: MISLQSDQLLEATVGQFMIEADKVAHVQVGNNLEHALLVLTKTGYTAIPVLDPSYRLHGLIGTNMIMNSIFGLERIEFEKLDQITVEEVMLTDIPRLHINDPIMKGFGMVINNGFVCVENDEQVFEGIFTRRVVLKELNKHIRSLNK

What was measured:
Assay in all cases: ITC
DarB^E34R = DarB^E34R (Bacillus subtilis, UniProt O31698 1-147, E34R)
DarB E74G/R75G = DarB E74G/R75G (Bacillus subtilis, UniProt O31698 1-147, E74G | R75G)
RelBs^NTD Y279A = RelBs^NTD Y279A (Bacillus subtilis)
RelBs^NTD K290G = RelBs^NTD K290G (Bacillus subtilis)

Kd (DarB^E34R) | Kd (DarB E74G/R75G) | Kd (RelBs^NTD Y279A) | Kd (RelBs^NTD K290G) | Binder
10.6 µM | 8.9 µM |  |  | B1
 |  | 45.1 µM | 4 µM | B2
